Data taken from article PMC3164694.

Molecular target: gelatin layer (gelatin coated glass coverslips)
Experiment: not stated; unpublished data (Collier and Goldberg); affinity for gelatin

## MMP-9 pro-enzyme homo-dimer (complex)
  fold higher affinity of the dimer for gelatin: 10 fold
